Results from doi:10.1101/2021.02.17.431743 (bioRxiv, 2021).
Where “and” joins values, the source holds several entries; their conditions need not be identical. Equal values may be shown once.

Biological target: the molecule itself
Test: gradient fixation ultracentrifugation

B1: HeV-RBP full ectodomain (head domain with intact stalk domain), dimeric fraction after gradient fixation (domain or fragment)
chain: QNYTRTTDNQALIKESLQSVQQQIKALTDKIGTEIGPKVSLIDTSSTITIPANIGLLGSKISQSTSSINENVNDKCKFTLPPLKIHECNISCPNPLPFREYRPISQGVSDLVGLPNQICLQKTTSTILKPRLISYTLPINTREGVCITDPLLAVDNGFFAYSHLEKIGSCTRGIAKQRIIGVGEVLDRGDKVPSMFMTNVWTPPNPSTIHHCSSTYHEDFYYTLCAVSHVGDPILNSTSWTESLSLIRLAVRPKSDSGDYNQKYIAITKVERGKYDKVMPYGPSGIKQGDTLYFPAVGFLPRTEFQYNDSNCPIIHCKYSKAENCRLSMGVNSKSHYILRSGLLKYNLSLGGDIILQFIEIADNRLTIGSPSKIYNSLGQPVFYQASYSWDTMIKLGDVDTVDPLRVQWRNNSVISRPGQSQCPRFNVCPEVCWEGTYNDAFLIDRLNWVSAGVYLNSNQTAENPVFAVFKDNEILYQVPLAEDDTNAQKTITDCFLLENVIWCISLVEIYDTGDSVIRPKLFAVKIPAQCSES
With B1 as the protein, how does the “stoichiometry N” value read?
The value was 2 and 4.
